This is an account of results in US20160131655A1.

The target of this test is BCMA (B cell maturation antigen) protein on the cell surface of human multiple myeloma cells (human) (UniProt Q02223). As to the kind of experiment: FACS on OPM-2 cells, Alexa488-labeled antibody.
UniProt Q02223, sequence (Q02223 whole entry N81S): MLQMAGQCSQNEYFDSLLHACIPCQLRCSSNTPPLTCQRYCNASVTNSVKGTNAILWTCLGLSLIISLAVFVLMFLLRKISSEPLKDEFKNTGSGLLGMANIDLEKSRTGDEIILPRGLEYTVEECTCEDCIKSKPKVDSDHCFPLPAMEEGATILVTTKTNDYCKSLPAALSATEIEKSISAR

“anti-BCMA antibody MAB193 (clone 335004, rat IgG2a, R&D Systems #MAB193)” registered a Mean Fluorescence Signal of 371.
Consider “anti-BCMA antibody Vicky-1 (rat IgG1, GeneTex #GTX17323)”, for which the Mean Fluorescence Signal came to 609.
